From PMC7595112, “Ketohexokinase-A acts as a nuclear protein kinase that mediates fructose-induced metastasis in breast cancer” (Nature Communications, 2020)
Each block holds one molecule with its values, some of them ahead of it.

Experiments:
[1] = molecular target: SLUG (SNAIL2) (UniProt O43623); test: co-immunoprecipitation, immunoblot; details: reference: wild-type YWHAH; sites S25
[2] = molecular target: T1, FLAG-LRRC59 purified from HEK293T cells (human, UniProt Q96AG4 1-307); test: pull-down; purified His-KHK-A and FLAG-LRRC59 incubated 1 h at 4 °C with 1 mM fructose in 25 mM HEPES pH 7.5, 150 mM KCl, 12.5 mM MgCl2, 0.5 mM DTT, 0.1% NP-40, 10% glycerol; His-KHK-A pulled down with nickel-NTA, anti-Flag blot; details: both partners purified
T1 construct: leucine-rich repeat-containing protein 59, human cDNA NM_018509 cloned by RT-PCR into pcDNA-FLAG
T1 sequence (looked up): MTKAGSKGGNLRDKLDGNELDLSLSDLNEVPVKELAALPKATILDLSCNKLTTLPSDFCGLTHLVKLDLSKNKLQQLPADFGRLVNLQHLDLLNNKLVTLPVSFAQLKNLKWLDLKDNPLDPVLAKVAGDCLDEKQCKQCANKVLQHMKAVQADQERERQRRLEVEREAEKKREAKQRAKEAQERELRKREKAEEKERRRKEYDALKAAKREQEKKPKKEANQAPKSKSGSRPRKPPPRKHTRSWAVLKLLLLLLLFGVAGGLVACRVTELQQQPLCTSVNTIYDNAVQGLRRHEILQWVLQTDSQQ

binding against the reference [1]: lost
Molecule: YWHAH (14-3-3η) (from UniProt Q04917) YWHAH S25A

binding result [2]: binds
B1: His(6)-KHK-A purified from HEK293T cells (enzyme, human)
chain: MEEKQILCVGLVVLDVISLVDKYPKEDSEIRCLSQRWQRGGNASNSCTVLSLLGAPCAFMGSMAPGHVADFVLDDLRRYSVDLRYTVFQTTGSVPIATVIINEASGSRTILYYDRSLPDVSATDFEKVDLTQFKWIHIEGRNASEQVKMLQRIDAHNTRQPPEQKIRVSVEVEKPREELFQLFGYGDVVFVSKDVAKHLGFQSAEEALRGLYGRVRKGAVLVCAWAEEGADALGPDGKLLHSDAFPPPRVVDTLGAGDTFNASVIFSLSQGRSVQEALRFGCQVAGKKCGLQGFDGIV
notes: ketohexokinase isoform A (KHK-A), human cDNA NM_000221 cloned by RT-PCR into pcDNA-His(6); also called His-KHK-A; purified KHK-A; source: HEK293T, purified (nickel-NTA beads, eluted with 250 mM imidazole)
